Assay [1] has as its target EBOV GPdTM (Ebola virus) (UniProt Q05320).
Assay [2] has as its target RESTV GP (Reston virus) (UniProt Q66799).
In assay [3] the target is SUDV GPdTM (Sudan virus) (UniProt Q66814).
Assay [4] addresses EBOV GPdTM (Ebola virus) (UniProt Q05320). This is another data set of the same source.
For assay [5], the target named is SUDV GPdTM (Sudan virus) (UniProt Q66814). The source holds these as a separate data set.
In assay [6] the target is EBOV GPdTM (Ebola virus) (UniProt Q05320). This is another data set of the same source.
Assay [7] has as its target RESTV GP (Reston virus) (UniProt Q66799). The source holds these as a separate data set.
For assay [8], the target named is SUDV GPdTM (Sudan virus) (UniProt Q66814). This is another data set of the same source.

Like-named read-outs stand apart in the source and are kept apart here. Some results are limits rather than exact numbers.

On to FVM09 (antibody), for which the EC50 (in general, the midpoint of the concentration-response curve) was 0.008 mg/L with EBOV GPdTM (Ebola virus) [1]; 0.01 mg/L with RESTV GP (Reston virus) [2]; 0.011 mg/L in the assay with SUDV GPdTM (Sudan virus) [3]; 7.2 nM with EBOV GPdTM (Ebola virus) [4]; 9.73 nM in the assay with SUDV GPdTM (Sudan virus) [5]; below 0.015 mg/L with EBOV GPdTM (Ebola virus) [6]. The EC50 in the assay with RESTV GP (Reston virus) [7] and in the assay with SUDV GPdTM (Sudan virus) [8] was below 0.015 mg/L each time.
